The text below walks through data of PMC6083498, “F-CphI represents a new homing endonuclease family using the Endo VII catalytic motif”.

This data set concerns the target T1, F-CphI (cyanophage S-PM2, UniProt Q7Y4H4 1-142).
T1 sequence: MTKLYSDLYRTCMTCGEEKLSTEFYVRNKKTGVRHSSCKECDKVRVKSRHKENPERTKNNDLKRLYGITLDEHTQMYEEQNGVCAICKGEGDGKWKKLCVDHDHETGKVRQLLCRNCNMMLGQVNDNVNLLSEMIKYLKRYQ
The experiment in a line: EMSA; no Mg2+ added; Kd value only in figure; EMSA: 10 mM Tris-HCl pH 8.0, 2% glycerol, 2 ug/ml poly-dIdC, 2 ug/ml BSA, 0.2 mM DTT, on ice 15 min, 2 nM labeled DNA; 8% native PAGE in 1X TBE. The conditions noted are these: protein: recombinant; tags: C-terminal Myc-His (pBAD/Myc-HisB; in frame with downstream His-tag); label: 5'-32P on top strand; blunt.

B1: SBM4-60Top duplex (dsDNA)
DNA 1: TGGTCTGGGTATGGAAGTGATGCACGAGCGCAACGCTCACAACTTCCCTCTCGACCTTGC
DNA 2: GCAAGGTCGAGAGGGAAGTTGTGAGCGTTGCGCTCGTGCATCACTTCCATACCCAGACCA
As for B1, the binding result was “binds”.
